Reference: patent publication US20090130093A1 (AstraZeneca / MedImmune, published 2009)

T1: human GM-CSFRα (mature receptor alpha chain, as on human cells) (human, UniProt P15509 23-400)
T1 sequence: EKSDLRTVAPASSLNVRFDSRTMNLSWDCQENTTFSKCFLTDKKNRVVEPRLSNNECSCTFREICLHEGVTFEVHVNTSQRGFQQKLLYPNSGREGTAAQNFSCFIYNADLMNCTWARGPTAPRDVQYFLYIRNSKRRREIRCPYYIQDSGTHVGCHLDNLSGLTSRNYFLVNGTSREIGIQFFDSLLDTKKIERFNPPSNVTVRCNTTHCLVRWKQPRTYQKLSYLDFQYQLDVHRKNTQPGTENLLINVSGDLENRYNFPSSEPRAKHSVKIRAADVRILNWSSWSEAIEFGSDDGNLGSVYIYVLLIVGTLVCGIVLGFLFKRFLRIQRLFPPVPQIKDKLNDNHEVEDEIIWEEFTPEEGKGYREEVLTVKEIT

T2: cynomolgus GM-CSFRα on cynomolgus granulocytes (cynomolgus, UniProt A0A2K5UC70 23-393)
T2 sequence: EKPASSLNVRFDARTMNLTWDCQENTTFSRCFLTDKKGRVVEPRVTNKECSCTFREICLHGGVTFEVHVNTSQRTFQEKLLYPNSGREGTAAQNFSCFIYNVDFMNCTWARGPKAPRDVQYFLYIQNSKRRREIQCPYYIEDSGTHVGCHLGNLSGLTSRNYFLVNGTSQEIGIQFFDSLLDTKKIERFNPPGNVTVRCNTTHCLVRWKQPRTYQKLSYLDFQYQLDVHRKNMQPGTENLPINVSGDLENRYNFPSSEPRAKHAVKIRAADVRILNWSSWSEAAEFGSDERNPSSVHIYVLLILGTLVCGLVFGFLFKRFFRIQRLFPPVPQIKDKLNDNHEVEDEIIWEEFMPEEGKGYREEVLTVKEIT


Assays:
Test in all cases: cell-based or functional assay
[1] = molecular target: T1, human GM-CSFRα (mature receptor alpha …)
[2] = molecular target: T2, cynomolgus GM-CSFRα on cynomolgus …
[3] = molecular target: T1, human GM-CSFRα (mature receptor alpha …); remark: listed apart in the source

| Binder | IC50, GM-CSF induced proliferation of TF-1 cells [1] [nM] | IC50, cynomolgus granulocyte shape change assay [2] [nM] | other results |
| --- | --- | --- | --- |
| 28G5 (Antibody 3) IgG4, parent antibody (antibody, V domains shown) VH: QVQLVQSGAEVKKPGASVKVSCKISGHSLSELSIHWVRQTPTKGFEWMGGFDPEENEIVYAQRFQGRVTMTEDTSIDTAYLTLSSLRSDDTAVYYCSIVGSFSGWAFDYWGKGTMVTVSS VL: QAVLTQPSSVSGAPGQRVTISCTGSGSNIGAPYDVSWYQQLPGTAPKLLIYHNNKRPSGVPDRFSASKSGTSASLAITGLQADDEADYYCQSYDSSLSGSVFGGGTKVTVL | – | ~5 | – |
| Antibody 2 IgG4 (antibody, V domains shown) VH: QVQLVQSGAEVKKPGASVKVSCKISGHSLSELSIHWVRQTPTKGFEWMGGFDPEENEIVYAQRFQGRVTMTEDTSIDTAYLTLSSLRSDDTAVYYCSIVGSFSGPALRPWGKGTMVTVSS VL: QAVLTQPSSVSGAPGQRVTISCTGSGSNIGAPYDVSWYQQLPGTAPKLLIYHNNKRPSGVPDRFSASKSGTSASLAITGLQADDEADYYCQSYDSSLSGSVFGGGTKVTVL | – | 0.0032 | – |
| Antibody 6 (germlined or non-germlined not stated at these places) (antibody, V domains shown) VH: QVQLVQSGAEVKKPGASVKVSCKVSGYTLTELSIHWVRQAPGKGLEWMGGFDPEENEIVYAQRFQGRVTMTEDTSTDTAYMELSSLRSEDTAVYYCAIVGSFSPLTLGLWGQGTMVTVSS VL: QSVLTQPPSVSGAPGQRVTISCTGSGSNIGAPYDVSWYQQLPGTAPKLLIYHNNKRPSGVPDRFSGSKSGTSASLAITGLQAEDEADYYCATVEAGLSGSVFGGGTKLTVL | – | – | IC50, colony formation assay with 10 ng/ml human GM-CSF [3]: ~0.08 µg/mL |

Second part, led by results:

| IC50, GM-CSF induced proliferation of TF-1 cells [1] [nM] | IC50, cynomolgus granulocyte shape change assay [2] [nM] | Binder | other results |
| --- | --- | --- | --- |
| 1.11 | – | Antibody 13 IgG4 (antibody, V domains shown) VH: QVQLVQSGAEVKKPGASVKVSCKISGHSLSELSIHWVRQTPTKGFEWMGGFDPEENEIVYAQRFQGRVTMTEDTSIDTAYLTLSSLRSDDTAVYYCSIVGSFSGWAFDYWGKGTMVTVSS VL: QAVLTQPSSVSGAPGQRVTISCTGSGSNIGAPYDVSWYQQLPGTAPKLLIYHNNKRPSGVPDRFSASKSGTSASLAITGLQADDEADYYCQSYDSRTGIIVFGGGTKVTVL | – |
| – | 0.00173 | Antibody 6 IgG4, non-germlined (antibody, V domains shown) VH: QVQLVQSGAEVKKPGASVKVSCKISGHSLSELSIHWVRQTPTKGFEWMGGFDPEENEIVYAQRFQGRVTMTEDTSIDTAYLTLSSLRSDDTAVYYCSIVGSFSPLTLGLWGKGTMVTVSS VL: QAVLTQPSSVSGAPGQRVTISCTGSGSNIGAPYDVSWYQQLPGTAPKLLIYHNNKRPSGVPDRFSASKSGTSASLAITGLQADDEADYYCATVEAGLSGSVFGGGTKLTVL | – |
| 0.0133 | – | Antibody 18 IgG4 (antibody, V domains shown) VH: QVQLVQSGAEVKKPGASVKVSCKISGHSLSELFIHWVRQTPTKGFEWMGGFDPEENEIVYAQRFQGRVTMTEDTSIDTAYLTLSSLRSDDTAVYYCSTVGSFSGPALHLWGKGTMVTVSS VL: QAVLTQPSSVSGAPGQRVTISCTGSGSNIGAPYDVSWYQQLPGTAPKLLIYHNNKRPSGVPDRFSASKSGTSASLAITGLQADDEADYYCQSYDSQWNQPLFGGGTKVTVL | – |
